{"source": "patent US20230414735A1", "about": "(BIONTECH US, published 2023)", "binders": {"B1": {"name": "SQIMSLWGL (peptide)", "peptide": "SQIMSLWGL", "notes": "NAB:STAT6 (variant 1 of Chmielecki et al.)"}}}
{"biological_target": "HLA-B08:01 (human)", "assay": "pMHC-I dissociation half-life, 125I-b2m", "protocol": "Briefly, synthetic genes encoding biotinylated MHC-I heavy and light chains are expressed in E. coli and purified from inclusion bodies using standard methods. The light chain (β2m) is radio-labeled with iodine (¹²⁵I), and combined with the purified MHC-I heavy chain and peptide of interest at 18° C. to initiate pMHC-I complex formation. These reactions are carried out in streptavidin coated microplates to bind th biotinylated MHC-I heavy chains to the surface and allow measurement of radiolabeled light chain to monitor complex formation. Dissociation is initiated by addition of higher concentations of unlabled light-chain and incubation at 37° C. Stability is defined as the length of time in hours it takes for half of the complexes to dissociate, as measured by scintillation counts", "units": {"Stability (T1/2 (h))": "h"}}
{"binder": "FQNGKMALSA (FRG1B, L52S)", "Stability (T1/2 (h))": 0}
{"binder": "YMFLKAESKI (GATA3 CSNH)", "Stability (T1/2 (h))": 0.4}
{"binder": "FLQEQYHEA (GATA3 YHEA)", "Stability (T1/2 (h))": 0}
{"binder": "YVMAYVMAGV (HER2, G776insYVMA)", "Stability (T1/2 (h))": 0}
{"binder": "YVMAYVMAG (HER2, G776insYVMA)", "Stability (T1/2 (h))": 1.2}
{"binder": "SLMPAHWSI (JAK1(-1))", "Stability (T1/2 (h))": 0}
{"binder": "LSLMPAHWSI (JAK1(-1))", "Stability (T1/2 (h))": 0}
{"binder": "YLGNHMNIA (KIT, V654A)", "Stability (T1/2 (h))": 0}
{"binder": "SLGNHLCPL (MLL2, CRLS)", "Stability (T1/2 (h))": 0.5}
{"binder": "FLLALWECSL (MSH3(-1))", "Stability (T1/2 (h))": 0}
{"binder": "FELLSTPPL (MYC, P57S)", "Stability (T1/2 (h))": 0}
{"binder": "B1", "Stability (T1/2 (h))": 0}
{"biological_target": "HLA-B08:01 (human)", "assay": "competition with 125I probe peptide on purified HLA", "protocol": "Immunol. 31:813, 1994; Sidney et al., in Current Protocols in Immunology, Margulies, Ed., John Wiley & Sons, New York, Section 18.3, 1998).\n(§1) Following incubation, MHC-peptide complexes are separated from free peptide by gel filtration on 7.8 mm×15 cm TSK200 columns (TosoHaas 16215, Montgomeryville, PA). Because the large size of the radiolabeled peptide used for the DRB1*1501 (DR2w2(31) assay makes separation of bound from unbound peaks more difficult under these conditions, all DRB1*1501 (DR2w2(31) assays were performed using a 7.8 mm×30 cm TSK2000 column eluted at 0.6 mLs/min. The eluate from the TSK columns is passed through a Beckman 170 radioisotope detector, and radioactivity is plotted and integrated using a Hewlett-Packard 3396A integrator, and the fraction of peptide bound is determined.\n(§2) Since under these conditions [label]<[HLA] and IC₅₀≥[HLA], the measured IC₅₀ values are reasonable approximations of the true KD values. […] For database purposes, and inter-experiment comparisons, relative binding values are compiled. These values can subsequently be converted back into IC₅₀ nM values by dividing the IC₅₀ nM of the positive controls for inhibition by the relative binding of the peptide of interest.", "units": {"IC50": "µM"}}
{"binder": "YLGNHMNIA (KIT, V654A)", "IC50": 0.872}
{"binder": "FELLSTPPL (MYC, P57S)", "IC50": 3.18}
{"biological_target": "HLA-B08:01 (human)", "assay": "competition with 125I probe peptide for purified HLA class I", "protocol": "as §1, §2", "units": {"IC50": "µM"}}
{"binder": "LKKLRSPL (also called SMAP1(-1))", "IC50": 0.0006}
